Where two headings read alike, the source gives them in different places.
Assays:
[1] = target: the molecule itself; assay: SEC-MALS
[2] = target: T1, HelQ (Homo sapiens, UniProt Q8TDG4); assay: EMSA
T1 sequence: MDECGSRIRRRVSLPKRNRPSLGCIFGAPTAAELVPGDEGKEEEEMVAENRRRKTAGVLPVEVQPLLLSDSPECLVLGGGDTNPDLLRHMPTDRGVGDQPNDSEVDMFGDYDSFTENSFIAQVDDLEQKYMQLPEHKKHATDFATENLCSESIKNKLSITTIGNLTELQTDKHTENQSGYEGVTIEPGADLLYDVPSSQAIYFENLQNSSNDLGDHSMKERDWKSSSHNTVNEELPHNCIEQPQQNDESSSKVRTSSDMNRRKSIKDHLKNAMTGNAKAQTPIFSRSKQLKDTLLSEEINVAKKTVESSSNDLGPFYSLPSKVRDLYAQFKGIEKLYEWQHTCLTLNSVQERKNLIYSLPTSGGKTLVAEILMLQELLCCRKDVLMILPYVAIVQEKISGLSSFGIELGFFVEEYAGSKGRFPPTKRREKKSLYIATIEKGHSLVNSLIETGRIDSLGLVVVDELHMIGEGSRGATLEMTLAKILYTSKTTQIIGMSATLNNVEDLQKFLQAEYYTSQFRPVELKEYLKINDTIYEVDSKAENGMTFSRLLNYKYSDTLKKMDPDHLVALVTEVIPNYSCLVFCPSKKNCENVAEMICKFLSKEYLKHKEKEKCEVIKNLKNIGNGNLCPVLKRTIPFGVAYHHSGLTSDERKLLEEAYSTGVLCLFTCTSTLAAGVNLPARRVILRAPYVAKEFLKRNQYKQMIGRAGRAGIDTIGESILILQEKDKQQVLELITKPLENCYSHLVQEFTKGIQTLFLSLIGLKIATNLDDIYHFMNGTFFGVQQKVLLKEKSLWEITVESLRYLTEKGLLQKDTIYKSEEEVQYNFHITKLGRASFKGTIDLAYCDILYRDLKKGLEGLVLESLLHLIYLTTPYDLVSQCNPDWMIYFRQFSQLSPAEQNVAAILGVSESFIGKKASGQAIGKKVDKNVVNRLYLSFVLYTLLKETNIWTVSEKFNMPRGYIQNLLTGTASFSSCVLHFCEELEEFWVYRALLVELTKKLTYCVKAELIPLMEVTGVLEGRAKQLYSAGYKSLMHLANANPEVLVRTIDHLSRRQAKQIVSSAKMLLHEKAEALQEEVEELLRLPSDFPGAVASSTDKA

[3] = target: N-HelQ;RPA (Homo sapiens;Homo sapiens, UniProt Q8TDG4;P27694;P15927;P35244 1-417;1-616;1-270;1-121, |); assay: EMSA
[4] = target: T1, HelQ; assay: EMSA; remark: listed apart in the source
[5] = target: SSB (Escherichia coli, UniProt P0AGE0 1-178); assay: EMSA
[6] = target: HelQ;RPA (Homo sapiens;Homo sapiens, UniProt Q8TDG4;P27694;P15927;P35244 ;1-616;1-270;1-121, |); assay: EMSA
[7] = target: T2, N-HelQ (Homo sapiens, UniProt Q8TDG4 1-417); assay: EMSA
T2 sequence: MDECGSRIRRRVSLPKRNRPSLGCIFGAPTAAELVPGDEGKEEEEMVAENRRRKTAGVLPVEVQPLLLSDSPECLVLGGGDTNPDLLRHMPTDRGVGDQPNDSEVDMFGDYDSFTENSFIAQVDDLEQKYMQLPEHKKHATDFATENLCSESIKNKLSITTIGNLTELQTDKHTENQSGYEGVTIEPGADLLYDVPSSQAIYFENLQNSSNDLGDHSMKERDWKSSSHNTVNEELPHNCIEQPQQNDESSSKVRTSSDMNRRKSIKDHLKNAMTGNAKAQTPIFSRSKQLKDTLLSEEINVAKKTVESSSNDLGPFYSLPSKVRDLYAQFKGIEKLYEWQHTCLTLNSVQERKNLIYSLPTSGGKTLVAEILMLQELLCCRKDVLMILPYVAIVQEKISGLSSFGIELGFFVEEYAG

Sequence of SSB (P0AGE0 whole entry): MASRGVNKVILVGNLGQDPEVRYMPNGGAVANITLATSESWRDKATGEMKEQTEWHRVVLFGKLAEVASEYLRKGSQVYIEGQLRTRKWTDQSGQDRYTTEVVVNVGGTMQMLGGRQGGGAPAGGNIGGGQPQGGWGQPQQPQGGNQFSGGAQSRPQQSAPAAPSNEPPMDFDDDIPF
Sequence of HelQ;RPA (P27694 whole entry, chain 2 of 3): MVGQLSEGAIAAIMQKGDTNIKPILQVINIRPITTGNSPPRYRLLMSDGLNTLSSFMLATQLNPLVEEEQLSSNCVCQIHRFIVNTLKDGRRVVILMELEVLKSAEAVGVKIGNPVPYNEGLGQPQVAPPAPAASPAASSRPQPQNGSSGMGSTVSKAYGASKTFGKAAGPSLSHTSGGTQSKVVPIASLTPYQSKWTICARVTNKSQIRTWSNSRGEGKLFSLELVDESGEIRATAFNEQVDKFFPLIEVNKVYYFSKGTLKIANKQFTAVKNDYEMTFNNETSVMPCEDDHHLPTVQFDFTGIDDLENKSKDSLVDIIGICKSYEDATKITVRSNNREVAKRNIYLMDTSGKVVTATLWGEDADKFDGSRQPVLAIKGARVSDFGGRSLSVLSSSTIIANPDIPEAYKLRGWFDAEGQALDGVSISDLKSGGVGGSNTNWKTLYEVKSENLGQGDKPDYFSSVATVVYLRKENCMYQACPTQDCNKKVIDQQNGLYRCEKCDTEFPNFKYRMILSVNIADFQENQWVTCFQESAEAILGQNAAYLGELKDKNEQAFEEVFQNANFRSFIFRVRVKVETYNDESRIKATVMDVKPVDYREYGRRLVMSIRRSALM
Sequence of HelQ;RPA (P15927 whole entry, chain 3 of 3): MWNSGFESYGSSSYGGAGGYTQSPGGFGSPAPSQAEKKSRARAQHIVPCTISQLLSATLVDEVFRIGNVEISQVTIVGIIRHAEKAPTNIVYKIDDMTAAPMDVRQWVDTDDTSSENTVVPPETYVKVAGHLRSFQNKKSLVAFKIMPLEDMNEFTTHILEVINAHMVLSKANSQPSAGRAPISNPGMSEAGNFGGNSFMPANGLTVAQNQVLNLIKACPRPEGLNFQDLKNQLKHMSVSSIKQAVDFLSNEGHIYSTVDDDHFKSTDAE
Sequence of HelQ;RPA (P35244 whole entry, chain 4 of 3): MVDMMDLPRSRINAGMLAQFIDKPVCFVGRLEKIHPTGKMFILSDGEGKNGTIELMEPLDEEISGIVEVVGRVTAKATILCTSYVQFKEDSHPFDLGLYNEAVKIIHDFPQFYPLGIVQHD
Sequence of N-HelQ;RPA (P27694 whole entry, chain 2 of 3): as the sequence (P27694 whole entry, chain 2 of 3) above
Sequence of N-HelQ;RPA (P15927 whole entry, chain 3 of 3): as the sequence (P15927 whole entry, chain 3 of 3) above
Sequence of N-HelQ;RPA (P35244 whole entry, chain 4 of 3): as the sequence (P35244 whole entry, chain 4 of 3) above

B1: human HelQ helicase (full-length HelQ) (enzyme)
chain: MDECGSRIRRRVSLPKRNRPSLGCIFGAPTAAELVPGDEGKEEEEMVAENRRRKTAGVLPVEVQPLLLSDSPECLVLGGGDTNPDLLRHMPTDRGVGDQPNDSEVDMFGDYDSFTENSFIAQVDDLEQKYMQLPEHKKHATDFATENLCSESIKNKLSITTIGNLTELQTDKHTENQSGYEGVTIEPGADLLYDVPSSQAIYFENLQNSSNDLGDHSMKERDWKSSSHNTVNEELPHNCIEQPQQNDESSSKVRTSSDMNRRKSIKDHLKNAMTGNAKAQTPIFSRSKQLKDTLLSEEINVAKKTVESSSNDLGPFYSLPSKVRDLYAQFKGIEKLYEWQHTCLTLNSVQERKNLIYSLPTSGGKTLVAEILMLQELLCCRKDVLMILPYVAIVQEKISGLSSFGIELGFFVEEYAGSKGRFPPTKRREKKSLYIATIEKGHSLVNSLIETGRIDSLGLVVVDELHMIGEGSRGATLEMTLAKILYTSKTTQIIGMSATLNNVEDLQKFLQAEYYTSQFRPVELKEYLKINDTIYEVDSKAENGMTFSRLLNYKYSDTLKKMDPDHLVALVTEVIPNYSCLVFCPSKKNCENVAEMICKFLSKEYLKHKEKEKCEVIKNLKNIGNGNLCPVLKRTIPFGVAYHHSGLTSDERKLLEEAYSTGVLCLFTCTSTLAAGVNLPARRVILRAPYVAKEFLKRNQYKQMIGRAGRAGIDTIGESILILQEKDKQQVLELITKPLENCYSHLVQEFTKGIQTLFLSLIGLKIATNLDDIYHFMNGTFFGVQQKVLLKEKSLWEITVESLRYLTEKGLLQKDTIYKSEEEVQYNFHITKLGRASFKGTIDLAYCDILYRDLKKGLEGLVLESLLHLIYLTTPYDLVSQCNPDWMIYFRQFSQLSPAEQNVAAILGVSESFIGKKASGQAIGKKVDKNVVNRLYLSFVLYTLLKETNIWTVSEKFNMPRGYIQNLLTGTASFSSCVLHFCEELEEFWVYRALLVELTKKLTYCVKAELIPLMEVTGVLEGRAKQLYSAGYKSLMHLANANPEVLVRTIDHLSRRQAKQIVSSAKMLLHEKAEALQEEVEELLRLPSDFPGAVASSTDKA
[1]
  stoichiometry N: 2

B2: Fork-Me (mixed)
DNA 1: GTCGGATCCTCTAGACAGCATCCATGATCACTGGCACTGGTAGAATTCGGC
DNA 2: CAACGTCATAGACGATTACATTGCTACATGGATGCTGTCTAGAGGATCCGA
modifications: single methylphosphonate linkage in the 3'-5' tracking strand (position marked only in Fig S6)
[2]
  binding result: binds

B3: Fork-A (mixed)
DNA 1: GTCGGATCCTCTAGACAGCTCCATGATCACTGGCACTGGTAGAATTCGGC
DNA 2: CAACGTCATAGACGATTACATTGCTACATGGAGCTCTCTAGAGGATCCGA
[3]
  binding result: binds
[4]
  binding result: binds
[5]
  binding result: binds
[6]
  binding result: binds
[7]
  binding result: no binding

B4: Fork-S (mixed)
DNA 1: GTCGGATCCTCTAGACAGCTCCATGATCACTGGCACTGGTAGAATTCGGC
DNA 2: CAACGTCATAGACGATTACATTGCTACATGGAGCTCTCTAGAGGATCCGA
modifications: single phosphorothioate linkage in the 3'-5' tracking strand (position marked only in Fig S6)
[2]
  binding result: binds

B5: Fork-AP (mixed)
DNA 1: GTCGGATCCTCTAGACAGCTCCATGATCACTGGCACTGGTAGAATTCGGC
DNA 2: CAACGTCATAGACGATTACATTGCTACATGGAGCTCTCTAGAGGATCCGA
modifications: single abasic site in the 3'-5' tracking strand (position marked only in Fig S6)
[2]
  binding result: binds

Source: paper doi:10.1101/511758 (bioRxiv, 2019)
